Here are results for six molecules from patent US10772928B2, “Modulation and detection of a neuronal alternative splicing regulatory network for treatment and diagnosis of neurological disorders” (The Governing Council of the University of Toronto, priority 2014, dated 2020).

For this test, the target named is T1, nSR100 (Mus musculus, UniProt Q8BKA3).
T1 construct: host or cells: mouse N2A cells
T1 sequence (Q8BKA3 1-608): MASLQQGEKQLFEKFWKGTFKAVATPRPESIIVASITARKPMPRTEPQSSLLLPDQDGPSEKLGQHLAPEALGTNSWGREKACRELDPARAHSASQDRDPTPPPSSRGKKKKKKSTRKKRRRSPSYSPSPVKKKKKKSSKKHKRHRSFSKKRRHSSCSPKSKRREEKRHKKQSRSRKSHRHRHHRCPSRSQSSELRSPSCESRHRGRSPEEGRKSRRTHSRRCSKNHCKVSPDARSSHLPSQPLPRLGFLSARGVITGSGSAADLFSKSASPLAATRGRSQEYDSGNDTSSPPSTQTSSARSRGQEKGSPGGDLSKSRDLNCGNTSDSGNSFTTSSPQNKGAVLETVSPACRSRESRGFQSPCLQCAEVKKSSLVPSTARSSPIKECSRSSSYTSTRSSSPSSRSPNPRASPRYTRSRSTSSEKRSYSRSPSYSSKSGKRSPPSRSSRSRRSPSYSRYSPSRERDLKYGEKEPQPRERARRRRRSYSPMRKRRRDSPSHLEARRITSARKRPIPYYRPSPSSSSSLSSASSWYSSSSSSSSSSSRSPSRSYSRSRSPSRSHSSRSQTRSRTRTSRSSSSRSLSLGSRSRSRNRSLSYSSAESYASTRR
Put plainly: AP-MS nSR100 interaction partners from mouse N2A cells (Table 5). As to conditions: for AvgP (average of the SAINT scores) / MaxP (maximal SAINT score): bait Srrm4; for FoldChange between the prey Avg spectra of the bait and control purifications: bait Srrm4, 0.1 added to prevent division by 0; for AvgSpec (average number of spectra per replicate): bait Srrm4, 2 replicates; for Spectra (number of spectra for the prey in the purification of the bait): AP-MS; for SpecSum: bait Srrm4, sum of spectra over 2 replicates. Format: binding.

Setting [1] is: bait Srrm4, biological replicate 1 (first number of the cell).
Where [2] appears, read: bait Srrm4, biological replicate 2 (second number of the cell).

Excerpt: By applying affinity purification coupled to mass-spectrometry (AP-MS), several interaction nSR100 partner proteins were detected that provide insight into mechanisms of post-translational regulation of nSR100 levels.

B1: Cdc5l (protein, UniProt Q6A068 1-802, looked up)
Cell division cycle 5-like …: MPRIMIKGGVWRNTEDEILKAAVMKYGKNQWSRIASLLHRKSAKQCKARWYEWLDPSIKKTEWSREEEEKLLHLAKLMPTQWRTIAPIIGRTAAQCLEHYEFLLDKTAQRDNEEETTDDPRKLKPGEIDPNPETKPARPDPIDMDEDELEMLSEARARLANTQGKKAKRKAREKQLEEARRLAALQKRRELRAAGIEIQKKRKKKRGVDYNAEIPFEKKPALGFYDTSEENYQALDADFRKLRQQDLDGELRSEKEGRDRKKDKQHLKRKKESDLPSAILQTSGVSEFTKKRSKLVLPAPQISDAELQEVVKVGQASEVARQTAEESGITNSASSTLLSEYNVTNNSIALRTPRTPASQDRILQEAQNLMALTNVDTPLKGGLNTPLHESDFSGVTPQRQVVQTPNTVLSTPFRTPSNGAEGLTPRSGTTPKPVTNATPGRTPLRDKLNINPEDGMADYSDPSYVKQMERESREHLRLGLLGLPAPKNDFEIVLPENAEKELEEREIDDTYIEDAADVDARKQAIRDAERVKEMKRMHKAVQKDLPRPSEVNETILRPLNVEPPLTDLQKSEELIKKEMITMLHYDLLHHPYEPSGNKKGKNVGFATNNSEHITYLEHSPYEKFSKEDLKKAQDALVQEMEVVKQGMSHGELSSEAYNQVWEECYSQVLYLPAQSRYTRANLASKKDRIESLEKRLEINRGHMTTEAKRAAKMEKKMKILLGGYQSRAMGLMKQLNDLWDQIEQAHLELRTFEELKKHEDSAIPRRLECLKEDVQRQQEREKELQQRYADLLMEKETLQAKF
On to B1, for which the “AvgP (average of the SAINT scores)” value is given as 1; the “MaxP (maximal SAINT score)” value is reported as 1; the “FoldChange between the prey Avg spectra of the bait and control purifications” value (from here on “FoldChange between the prey Avg spectra”) was determined as 110; the “AvgSpec (average number of spectra per replicate)” value is 11. The same molecule had a SpecSum of 22. The “Spectra (number of spectra for the prey in the purification of the bait)” value under setting [1] is listed as 10. Besides, under setting [2], the “Spectra (number of spectra for the prey in the purification of the bait)” value came to 12.

B2: Snrpb2 (protein, UniProt Q9CQI7 1-225, looked up)
U2 small nuclear …: MDIRPNHTIYINNMNDKIKKEELKRSLYALFSQFGHVVDIVALKTMKMRGQAFVIFKELGSSTNALRQLQGFPFYGKPMRIQYAKTDSDIISKMRGTFADKEKKKEKKKAKTMEQAAAAANKKPGQGTPNAANTQGTAAPNPQVPDYPPNYILFLNNLPEETNEMMLSMLFNQFPGFKEVRLVPGRHDIAFVEFENDGQAGAARDALQGFKITPSHAMKITYAKK
In the case of B2, the “AvgP (average of the SAINT scores)” value is 1; the “MaxP (maximal SAINT score)” value was 1; the “FoldChange between the prey Avg spectra” value is 55; the “AvgSpec (average number of spectra per replicate)” value is 5.5. Besides, the SpecSum is recorded as 11. The “Spectra (number of spectra for the prey in the purification of the bait)” value under setting [1] was 6. Further, under setting [2], the “Spectra (number of spectra for the prey in the purification of the bait)” value came to 5.

B3: Ddx41 (protein, UniProt Q91VN6 1-622, looked up)
Probable ATP-dependent RNA …: MEDSEPERKRARADEATAGGSRSEDEDEDDEDYVPYVPLRQRRQLLLQKLLQRRRKGATEEEQQDSGSEPRGDEDDIPLGPQSNVSLLDQHQHLKEKAEARKESAKEKQLKEEEKILESVAEGRALMSVKEMAKGITYDDPIKTSWTPPRYVLSMSEERHERVRKKYHILVEGDGIPPPIKSFKEMKFPAAILRGLKKKGILHPTPIQIQGIPTILSGRDMIGIAFTGSGKTLVFTLPVIMFCLEQEKRLPFSKREGPYGLIICPSRELARQTHGILEYYCRLLQEDSSPLLRCALCIGGMSVKEQMETIRHGVHMMVATPGRLMDLLQKKMVSLDICRYLALDEADRMIDMGFEGDIRTIFSYFKGQRQTLLFSATMPKKIQNFAKSALVKPVTINVGRAGAASLDVIQEVEYVKEEAKMVYLLECLQKTPPPVLIFAEKKADVDAIHEYLLLKGVEAVAIHGGKDQEERTKAIEAFREGKKDVLVATDVASKGLDFPAIQHVINYDMPEEIENYVHRIGRTGRSGNTGIATTFINKACDESVLMDLKALLLEAKQKVPPVLQVLHCGDESMLDIGGERGCAFCGGLGHRITDCPKLEAMQTKQVSNIGRKDYLAHSSMDF
For B3, the “AvgP (average of the SAINT scores)” value was 1; the “MaxP (maximal SAINT score)” value came to 1; the “FoldChange between the prey Avg spectra” value is 65; the “AvgSpec (average number of spectra per replicate)” value is 6.5. This molecule came in with a SpecSum of 13. Further, the “Spectra (number of spectra for the prey in the purification of the bait)” value under setting [1] is listed as 6. Further, the “Spectra (number of spectra for the prey in the purification of the bait)” value under setting [2] is on record as 7.

B4: Luc7l3 (protein, UniProt Q5SUF2 1-432, looked up)
Luc7-like protein 3: MISAAQLLDELMGRDRNLAPDEKRSNVRWDHESVCKYYLCGFCPAELFTNTRSDLGPCEKIHDENLRKQYEKSSRFMKVGYERDFLRYLQSLLAEVERRIRRGHARLALSQNQQSSGAAGPTGKNEEKIQVLTDKIDVLLQQIEELGSEGKVEEAQGMMKLVEQLKEERELLRSTTSTIESFAAQEKQMEVCEVCGAFLIVGDAQSRVDDHLMGKQHMGYAKIKATVEELKEKLRKRTEEPDRDERLKKEKQEREEREKEREREREERERKRRREEEEREKERARDRERRKRSRSRSRHSSRTSDRRCSRSRDHKRSRSRDRRRSRSRDRRRSRSHDRSERKHRSRSRDRRRSKSRDRKSYKHRSKSRDREQDRKSKEKEKKGSDDKKSSVKSSSREKQSEDTNPESKESDTKNEVNGTSEDIKSEGDTQSN
On to B4, for which the “AvgP (average of the SAINT scores)” value is 1; the “MaxP (maximal SAINT score)” value amounted to 1; the “FoldChange between the prey Avg spectra” value worked out at 7.33; the “AvgSpec (average number of spectra per replicate)” value is listed as 55. The molecule further gave a SpecSum of 110. Further, the “Spectra (number of spectra for the prey in the purification of the bait)” value under setting [1] stood at 45. Under setting [2], the “Spectra (number of spectra for the prey in the purification of the bait)” value amounted to 65.

B5: Snx8 (protein, UniProt Q8CFD4 1-459, looked up)
Sorting nexin-8: MTGRAMDPLPSPAVAAAAEAEADEEADPPATGPRTSQVTEWRALDPGRMQMPQGNPLLLSYTLQELLAKDTVQVELIPEKKGLFLKHVEYEVSSQRFKSSVYRRYNDFVVFHEVLLHKFPYRMVPALPPKRVLGADREFIEGRRRALKRFINLVARHPPFSEDVLLKLFLSFSGSDVQHKLKEAAQCVGDEFMNCKLAARAKDFLPADIQTQFAMSRELIRNVYNSFYKLRDRAERIASRAIDNAADLLIFGKELSALGSDTTPLPSWAALHLSTWGSLKQALKGLSVEFALLADRAAQQGKKEENDVVEKLNLFLDLLQSYKDLCERHEKGVLHKHQRALHKYGLMKRQMMSAAHGREPESVEQLESRIVEQENVIQTMELRNYFSLYCLHQETQLVHVYLPLTSHILGAFVNSQIQGHKEMSKVWNDLKPKLSCLFAGPHSVLTPPRSPQEDGVCPH
In the case of B5, the “AvgP (average of the SAINT scores)” value came to 1; the “MaxP (maximal SAINT score)” value turned out to be 1; the “FoldChange between the prey Avg spectra” value is listed as 145; the “AvgSpec (average number of spectra per replicate)” value came out at 14.5. The same molecule gave a SpecSum of 29. The “Spectra (number of spectra for the prey in the purification of the bait)” value under setting [1] is 11. Further, the “Spectra (number of spectra for the prey in the purification of the bait)” value under setting [2] was found to be 18.

B6: Pgam5 (protein, UniProt Q8BX10 1-288, looked up)
Serine/threonine-protein …: MAFRQALQLAACGLAGGSAAVLFSAVAVGKPRGGGDADTRATEPPAWTGARAGRGVWDTNWDRREPLSLINLKKRNVESGEDELTSRLDHYKAKATRHIFLIRHSQYHVDGSLEKDRTLTPLGREQAELTGLRLASLGLKFNKIVHSSMTRAVETTDIISKHLPGVSRVSTDLLREGAPIEPDPPVSHWKPEAVQYYEDGARIEAAFRNYIHRADARQEEDSYEIFICHANVIRYIVCRALQFPPEGWLRLSLNNGSITHLVIRPNGRVALRTLGDTGFMPPDKITRS
B6: the “AvgP (average of the SAINT scores)” value was found to be 1; the “MaxP (maximal SAINT score)” value is 1; the “FoldChange between the prey Avg spectra” value is recorded as 160; the “AvgSpec (average number of spectra per replicate)” value came out at 16. Further, the SpecSum is given as 32. For the same molecule, the “Spectra (number of spectra for the prey in the purification of the bait)” value under setting [1] is 20. Moreover, under setting [2], the “Spectra (number of spectra for the prey in the purification of the bait)” value is listed as 12.
